Molecular target: AP2M (UniProt P84091)
Assay: cell-free ELISA, antibody-captured AP2M, biotinylated peptide
Details: reference: unphosphorylated control peptide; sites Y816

## TRKB (C-terminal peptide) C-terminus, last 26 aa (from UniProt Q63604) pY816 peptide
  binding against the reference: stronger

Reference: publication doi:10.1101/591909
